Results reported in paper PMC8626469 (2021).

Experiments:
[1] = biological target: Helicobacter pylori FabX R164A (H. pylori); assay: ITC
[2] = biological target: T1, Helicobacter pylori FabX (H. pylori); assay: ITC
T1 chain: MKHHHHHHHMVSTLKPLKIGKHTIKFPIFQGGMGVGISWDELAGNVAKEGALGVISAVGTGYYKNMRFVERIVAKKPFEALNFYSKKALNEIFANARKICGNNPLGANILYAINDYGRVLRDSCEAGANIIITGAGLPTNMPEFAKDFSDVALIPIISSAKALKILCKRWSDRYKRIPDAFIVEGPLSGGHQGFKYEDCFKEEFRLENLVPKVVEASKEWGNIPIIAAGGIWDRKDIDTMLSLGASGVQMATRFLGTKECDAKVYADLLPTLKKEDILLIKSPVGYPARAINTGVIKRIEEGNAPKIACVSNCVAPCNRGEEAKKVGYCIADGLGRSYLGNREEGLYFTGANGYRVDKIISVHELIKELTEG

B1: Helicobacter pylori holo-acyl carrier protein (natural protein)
chain: MALFEDIQAVIAEQLNVDAVQVTPEAEFVKDLGADSLDVVELIMALEEKFGVEIPDEQAEKIINVGDVVKYIEDNKLA
modifications: phosphopantetheine group (PPant) on Ser36
Kd [1]: > 200000 nM
Kd [2]: 1640 nM
